Source: publication PMC9844538 (Nature chemical biology, 2022)

Molecular target: MtbGyrBAcore(Y129F) (Mycobacterium tuberculosis, UniProt P9WG45 426-675+P9WG47:2-500, Y129F;internal_change)
Assay: X-ray crystallography

B1: singly nicked duplex with GAA triloop ends (structured_DNA)
DNA: GGCCCTACGGCTGAAAGCCGTAGGGCCCTACGGCTGAAAGCCGTAG
B1: binds.
